# Reference: patent US20210338158A1, “MEASUREMENT SYSTEM” (WearOptimo Pty Ltd, published 2021)
# B1: troponin I aptamer (thiol/methylene blue) (ssDNA)
# DNA: AGTCTCCGCTGTCCTCCCGATGCACTTGACGTATGTCTCACTTTCTTTTCATTGACATGGGATGACGCCGTGACTG
# modifications: 5'-SH-(CH2)6, 3'-methylene blue
# Columns and labels:
# [1] = target: recombinant troponin I (cardiac troponin I) (UniProt P19429 P19429:2-210); experiment: AC voltammetry; MB redox current decreases on troponin I exposure; aptamer immobilised on gold microstructures in perfused pig skin (600 ng/mL perfusate) and on gold disk electrode in 150 mM PBS pH 7.4; conditions: label: methylene blue
# bovine serum albumin = bovine serum albumin (Bos taurus, UniProt P02769 P02769:25-607); experiment: AC voltammetry specificity control; 50 ng/mL BSA in PBS gave little change on aptamer-functionalised gold disk electrode; conditions: label: methylene blue
# Sequence of bovine serum albumin (P02769 25-607, one chain of several): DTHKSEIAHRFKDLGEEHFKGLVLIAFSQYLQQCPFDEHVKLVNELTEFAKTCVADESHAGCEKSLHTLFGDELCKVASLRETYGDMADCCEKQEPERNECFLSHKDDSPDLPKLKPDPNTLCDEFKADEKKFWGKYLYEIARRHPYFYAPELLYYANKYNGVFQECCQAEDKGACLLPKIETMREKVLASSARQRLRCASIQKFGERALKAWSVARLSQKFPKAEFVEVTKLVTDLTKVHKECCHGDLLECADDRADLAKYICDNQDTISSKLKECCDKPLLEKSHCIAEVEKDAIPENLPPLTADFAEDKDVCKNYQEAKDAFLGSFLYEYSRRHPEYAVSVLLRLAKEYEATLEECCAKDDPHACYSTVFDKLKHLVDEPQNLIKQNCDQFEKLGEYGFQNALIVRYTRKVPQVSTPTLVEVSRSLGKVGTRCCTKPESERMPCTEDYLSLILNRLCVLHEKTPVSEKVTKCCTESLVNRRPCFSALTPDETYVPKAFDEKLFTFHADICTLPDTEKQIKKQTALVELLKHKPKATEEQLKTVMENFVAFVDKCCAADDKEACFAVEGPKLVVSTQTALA
# Sequence of recombinant troponin I (cardiac troponin I) (P19429 2-210, one chain of several): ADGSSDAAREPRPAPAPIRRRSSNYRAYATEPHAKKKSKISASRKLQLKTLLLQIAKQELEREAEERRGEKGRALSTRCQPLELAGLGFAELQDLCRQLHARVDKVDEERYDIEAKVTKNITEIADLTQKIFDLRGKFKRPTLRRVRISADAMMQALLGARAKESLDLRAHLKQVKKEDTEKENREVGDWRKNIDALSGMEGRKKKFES
binder,measurement,setting,value
B1,binding result,[1],binds
same,binding result,bovine serum albumin,no binding
